Patent publication US20230183322A1 (PEKING UNIVERSITY, published 2023)
Where a chain is given by its changes, count along the chain named.

B1: ABU-341 (antibody, V domains shown)
VH: QVQLQESGPGLVKPSQTLSLTCTVSAGSISSDTYYWSWIRQPAGKGLEWIGRIYTTGSTIYNPSLNSRVLISADTSNNQFSLKLTSVTASDTAVYYCAAHYYSRTDAFHIWGQGTMVTVSS
VL: DIQMTQSPSSLSASVGDRVTITCRASQSIAKFLNWYQKKPGKAPNLLISTASSFQSGVPSRFSGSGSGTDYTLTISGLQPEDFATYYCQQSYSSPYTFGQGTNLEIK
B2: ABU-340 (antibody, V domains shown)
VH: EVQLVESGGGLVQPGGSLRLSCAASGFTVSSNYMNWVRQAPGKGLEWVSVIYSGGSTYYADSVKGRFTLSRDNSKNTLYLQMNSLRAEDTAVYYCARGQYDILTGYQYGAFDIWGQGTMVTVSS
VL: QSALTQPASVSGSPGQSITISCTGTSSDVGTYNLVSWYQQHPGKAPKLMIYEVSKRPSGVSNRFSGSKSGNTASLTISGLQAEDEADYYCCTYAGSSTWVFGGGTKLTVL
B3: ABU-349 (antibody, V domains shown)
VH: EVQLVESGGGLIQPGGSLRLSCAASGFTVSRNYMSWVRQAPGKGLEWVSLIYSGGSTFYADSVKGRFTISRDNSKNTLYLQMNTLRSEDTAVYYCARDLVVYGMDVWGQGTTVTVSS
VL: DIQLTQSPSFLSASVGDRVTITCRASQGISSYLAWYQQKPGKAPKLLIYAASTLQVGVPSRFSGSGSGTEFTLTISSLQPEDFATYFCQQLNSYPFTFGPGTKVDIK
B4: ABU-351 (antibody, V domains shown)
VH: B3 VH with I12V, L50V, S56T, F58H, D72H, T84S, S87A
VL: B3 VL with V56S, R61S, F87Y, F96L, P100G, D105E
B5: ABU-356 (antibody, V domains shown)
VH: B3 VH with R31S, S35N, L50V, T84S, S87A, L99R
VL: DIQMTQSPSSLSASVGDRVTITCQASQDIINYLNWYQQKPGKAPKLLIYGASNLETGVPSRFSGGGSGTDFTFTISSLQPEDIATYYCHQYDNLPPTFGQGTRLEIK
B6: ABU-352 (antibody, V domains shown)
VH: B3 VH with F27L, R31S, S35T, L50V, D72H, T84S, S87A, L99A, V100M, V101S
VL: DIQMTQSPSSLSASVGDRVTITCRASQSISNFLNWYQQKPGKAPKLLIYAASSLQSGVPSRFSGSGSGTGFTLTISSLQPEDFATYYCQQSYSTPPDTFGQGTRLEIK
B7: ABU-355 (antibody, V domains shown)
VH: B3 VH with I12V, F27I, S30R, R31S, L50V, T84S, S87A, V100I, V101S, Y102R
VL: DIQLTQSPSSLSASVGDRVTITCRASQGISSYLAWYQQKPGKAPKLLIYAASTLQSGVPSRFSGSGSGTDFTLTISSLQPEDFATYYCQQLNGYPHSAFGPGTKVDIK
B8: ABU-367 (antibody, V domains shown)
VH: B3 VH with F27I, T28I, R31S, S35T, L50V, N83S, T84S, S87A, V100G, V101P
VL: B3 VL with Y32D, K45N, V56S, F87Y, Y94D, P95L, F96Y, P100Q, V104L, D105E
B9: ABU-361 (antibody, V domains shown)
VH: B3 VH with F27L, R31S, L50V, F58Y, K75T, T84S, S87A, V100D, V101Y
VL: B7 VL with K45N, Q90H, G93S, H96P, S97I, A98T, P101Q, K104R, V105L, D106E
B10: ABU-369 (antibody, V domains shown)
VH: B3 VH with F27L, R31S, L50V, T84S, S87A, V100Y, V101Y
VL: AIQLTQSPSSLSASVGDRVTITCRASQGISSYLAWYQQKPGKAPKLLIFAASTLQSGVPSRFSGSGSGTDFTLTISSLQPEDFATYYCQQLDSYPLFGGGTKVEIK
B11: ABU-368 (antibody, V domains shown)
VH: B3 VH with R31S, L50V, T84S, S87A, V100G, V101A
VL: B3 VL with V56S, F87Y, Y94D, P95L, F96Y, P100Q, V104L, D105E
B12: ABU-362 (antibody, V domains shown)
VH: B3 VH with I12V, L50V, S56T, F58H, D72H, T84S, S87A
VL: B3 VL with V56S, R61S, F87Y, F96L, P100G, D105E
B13: ABU-358 (antibody, V domains shown)
VH: B3 VH with F27L, R31S, S35N, L50V, F58Y, T77M, L78V, T84S, S87A, T114I
VL: B7 VL with F83V, G93S, Y94N, H96P, S97I, A98T
B14: ABU-372 (antibody, V domains shown)
VH: EVQLVESGGGLVQPGGSLRLSCAASGVTVSRNYMSWVRQAPGKGLEWVSVIYSGGSTDYADSVKGRFTISRHNSKNTLYLQMNSLRVEDTAVYYCARDGYGMDVWGQGTTVTVSS
VL: B3 VL with K45N, V56S, F87Y, F96P, T97A
B15: ABU-371 (antibody, V domains shown)
VH: B3 VH with I12V, F27I, T28I, R31S, L50V, F58Y, T84S, S87A, V100D, V101Y
VL: B7 VL with S10F, D70E, G93S, H96P, S97F, A98T
B16: ABU-357 (antibody, V domains shown)
VH: B3 VH with I12V, F27V, R31S, L50V, F58N, T84S, S87A, V101S
VL: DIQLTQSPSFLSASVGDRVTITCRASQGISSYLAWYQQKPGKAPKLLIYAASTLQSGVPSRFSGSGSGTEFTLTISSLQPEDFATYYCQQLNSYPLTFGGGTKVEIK
B17: ABU-382 (antibody, V domains shown)
VH: EVQLVESGGGLIQPGGSLRLSCAASGITVSSNYMSWVRQAPGKGLEWVSVIYSGGSTFYSDSVKGRFTISRDNSKNTLYLQMNSLRAEDTAVYYCARERGGRFDYWGQGTLVTVSS
VL: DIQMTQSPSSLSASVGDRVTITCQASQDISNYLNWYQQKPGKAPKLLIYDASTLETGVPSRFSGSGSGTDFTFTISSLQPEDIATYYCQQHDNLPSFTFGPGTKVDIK
B18: ABU-354 (antibody, V domains shown)
VH: EVQLVESGGGLIQPGGSLRLSCAASGLIVSSNYMSWVRQAPGKGLEWVSVLYAGGSTDYAGSVKGRFTISRDNSKNTLYLQMNSLRAEDTAVYYCARDAAVYGIDVWGQGTTVTVSS
VL: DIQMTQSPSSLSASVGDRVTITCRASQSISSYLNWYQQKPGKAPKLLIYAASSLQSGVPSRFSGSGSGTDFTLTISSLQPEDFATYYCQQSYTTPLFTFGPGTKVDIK
B19: ABU-365 (antibody, V domains shown)
VH: EVQLVESGGGLIQPGGSLRLSCAASGVTVSSNYMSWVRQAPGKGLEWVSLIYSGGSTYYADSVKGRFTISRDNSKNTLYLQMNSLRAEDTAVYYCARPIVGARSGMDVWGQGTTVTVSS
VL: B5 VL with I30N, G50D, G65S, T74I, H89Q, Y91H, P96V, Q100G, R103K, L104V
B20: ABU-375 (antibody, V domains shown)
VH: B14 VH with V27L, R31S, D58F, H72D, L85V, V87A, D98L, G99P
VL: DIQMTQSPSSLSASVGDRVTITCQASQDVSKYLNWYQQKPGKAPKLLIHDASNLQTGVPSRFSGGGSGTDFTFTISSLQPEDIATYYCQQYDNLPVTFGGGTKVEIK
B21: ABU-360 (antibody, V domains shown)
VH: EVQLVESGGGLVQPGGSLRLSCAASEFIVSRNYMSWVRQAPGKGLEWVSVIYSGGSTFYADSVKGRFTISRDNSKNTLYLQMNSLRAEDTGVYYCARDRGLVSDYWGQGTLVTVSS
VL: B5 VL with I30N, N31K, Y49F, G50D, N53H, G64A, G65S, P96R
B22: ABU-376 (antibody, V domains shown)
VH: B14 VH with V27L, R31S, E46N, D58Y, H72D, Q81E, R86K, V87P, D98L, G99P
VL: B5 VL with I30R, Y49H, G50D, S63I, G65S, H89Q, P96I
B23: ABU-373 (antibody, V domains shown)
VH: EVQLVESGGGLIQPGGSLRLSCAASGITVSSNYMSWVRQAPGKGLEWVSVIYSGGSTYYADSVKGRFTISRDNSKNTLYLQMNSLRAEDTAVYYCARGGAYYYGMDVWGQGTTVTVSS
VL: B7 VL with S10F, D70E, G93T, H96P, S97F, A98G
B24: ABU-359 (antibody, V domains shown)
VH: EVQLVESGGGLVQPGGSLRLSCAASGFIVSSNYMTWVRQAPGKGLEWVSVIYSGGSTFYADSVKGRFTISRHNSKNTLFLQMNSLRAEDTAVYYCARDAQNYGMDVWGQGTTVTVSS
VL: B6 VL with N31S, F32Y, Y49F, S56T, V58A, G70D, D97Y, R104K
B25: ABU-377 (antibody, V domains shown)
VH: QVQLVESGGGLVQPGGSLRLSCAASGLIVSSNYMSWVRQAPGEGLEWVSVIYSGGSTYYADSVKGRFTISRDTSKNTLYLQMNSLRAEDTAVYYCARARIYTYGPDYWGQGTLVTVSS
VL: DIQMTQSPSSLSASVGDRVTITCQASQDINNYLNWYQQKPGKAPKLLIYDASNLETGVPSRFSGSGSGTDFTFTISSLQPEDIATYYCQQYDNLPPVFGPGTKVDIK

molecular target: S protein of the novel coronavirus SARS-CoV-2 (SARS-CoV-2, UniProt P0DTC2 14-1273); test: cell-based or functional assay

B1 and B2 cannot be ordered by “IC50 for neutralizing SARS-CoV-2 pseudovirus (Huh-7 cells, luciferase)” value (“IC50” below): < 0.1 µg/mL for the first, < 0.5 µg/mL for the second.

B3 and B4 cannot be ordered by “IC50” value: < 0.1 µg/mL for the first, < 0.1 µg/mL for the second.

B5 and B6 cannot be ordered by “IC50” value: < 0.1 µg/mL for the first, < 0.1 µg/mL for the second.

B7 and B8 cannot be ordered by “IC50” value: < 0.1 µg/mL for the first, < 0.1 µg/mL for the second.

B9 and B10 cannot be ordered by “IC50” value: < 0.5 µg/mL for the first, < 0.1 µg/mL for the second.

B11 and B12 cannot be ordered by “IC50” value: < 0.5 µg/mL for the first, < 0.5 µg/mL for the second.

B13 and B14 cannot be ordered by “IC50” value: < 0.1 µg/mL for the first, < 0.5 µg/mL for the second.

B15 and B16 cannot be ordered by “IC50” value: < 1 µg/mL for the first, < 1 µg/mL for the second.

B17 and B18 cannot be ordered by “IC50” value: < 0.1 µg/mL for the first, < 0.1 µg/mL for the second.

B19 and B20 cannot be ordered by “IC50” value: < 0.1 µg/mL for the first, < 0.1 µg/mL for the second.

B21 and B22 cannot be ordered by “IC50” value: < 0.1 µg/mL for the first, < 0.1 µg/mL for the second.

B23 and B24 cannot be ordered by “IC50” value: < 0.5 µg/mL for the first, < 0.1 µg/mL for the second.

For B25, the “IC50” value was < 0.5 µg/mL.

molecular target: biotin-labeled SARS-COV-2 RBD domain (SARS-CoV-2, UniProt P0DTC2 319-541); test: SPR, Biacore T200, biotin-RBD on SA chip, antibody as analyte

B1 and B2 cannot be ordered by Kd: < 10 nM for the first, < 10 nM for the second.

B3 and B4 cannot be ordered by Kd: < 1 nM for the first, < 10 nM for the second.

B5 and B6 cannot be ordered by Kd: < 10 nM for the first, < 10 nM for the second.

B7 and B8 cannot be ordered by Kd: < 1 nM for the first, < 1 nM for the second.

B9 and B10 cannot be ordered by Kd: < 20 nM for the first, < 10 nM for the second.

B11 and B12 cannot be ordered by Kd: < 20 nM for the first, < 20 nM for the second.

B13 and B14 cannot be ordered by Kd: < 10 nM for the first, < 20 nM for the second.

B15 and B16 cannot be ordered by Kd: < 20 nM for the first, < 10 nM for the second.

B17 and B18 cannot be ordered by Kd: < 10 nM for the first, < 1 nM for the second.

B19 and B20 cannot be ordered by Kd: < 10 nM for the first, < 10 nM for the second.

B21 and B22 cannot be ordered by Kd: < 1 nM for the first, < 10 nM for the second.

B23 and B24 cannot be ordered by Kd: < 10 nM for the first, < 10 nM for the second.

For B25, the Kd was < 10 nM.
